Assay results published in publication PMC7026407, “Multiple Growth Factor Targeting by Engineered Insulin-like Growth Factor Binding Protein-3 Augments EGF Receptor Tyrosine Kinase Inhibitor Efficacy” (Scientific Reports, 2020).

Assays:
neuregulin-1 [1] = target: T1, neuregulin-1 (UniProt Q02297 20-241); test: cell-based or functional assay
hepatocyte growth factor [2] = target: T2, hepatocyte growth factor (UniProt P14210 32-728); test: cell-based or functional assay
PDGF BB [3] = target: T3, PDGF BB (UniProt P01127 82-190); test: cell-based or functional assay
T3 sequence (P01127 82-190): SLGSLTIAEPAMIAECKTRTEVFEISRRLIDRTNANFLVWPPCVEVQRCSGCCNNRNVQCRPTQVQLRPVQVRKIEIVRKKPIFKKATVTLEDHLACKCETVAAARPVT

[4] = target: insulin-like growth factor-1 (UniProt P05019 49-118); test: cell-based or functional assay
insulin-like growth factor-1, sequence (P05019 49-118): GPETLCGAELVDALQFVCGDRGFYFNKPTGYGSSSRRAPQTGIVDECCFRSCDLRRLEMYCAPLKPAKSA

Basic FGF [5] = target: T4, Basic FGF (UniProt P09038 143-288); test: cell-based or functional assay
T4 sequence (P09038 143-288): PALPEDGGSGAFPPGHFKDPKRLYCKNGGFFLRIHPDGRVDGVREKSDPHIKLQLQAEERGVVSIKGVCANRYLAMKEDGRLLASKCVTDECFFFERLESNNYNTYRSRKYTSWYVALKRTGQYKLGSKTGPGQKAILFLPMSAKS

neuregulin-1 [6] = target: T1, neuregulin-1; test: SPR; growth factor immobilised on a CM4 chip instead of the binding protein (asterisk in Table 1), binding protein or Fc fusion as analyte; HBS-P, 25 °C; regeneration with 4 M MgCl2 then 5 M guanidinium chloride; 1:1 binding analysis; conditions: both partners purified
hepatocyte growth factor [7] = target: T2, hepatocyte growth factor; test: as above; conditions: both partners purified
PDGF BB [8] = target: T3, PDGF BB; test: as above; conditions: both partners purified
Basic FGF [9] = target: T4, Basic FGF; test: as above; conditions: both partners purified
VEGF-B = VEGF-B (UniProt P49765 22-207); test: as above; conditions: both partners purified
IGFBP-3 = target: T5, IGFBP-3 (UniProt P17936 28-291); test: SPR; IGF binding protein or Fc fusion amine-coupled to a CM4 chip, growth factor as analyte; Biacore T100 or T200, HBS-P, BSA (0.2 mg/ml) or NaCl (0.65 M final) to reduce non-specific binding, 25 °C; 1:1 binding analysis; conditions: both partners purified
T5 construct: source: bought (commercially available, carrier-free)

IGFBP-7 = target: T6, IGFBP-7 (UniProt Q16270 27-282); test: as above; conditions: both partners purified
T6 construct: source: bought (commercially available, carrier-free)
T6 sequence (looked up): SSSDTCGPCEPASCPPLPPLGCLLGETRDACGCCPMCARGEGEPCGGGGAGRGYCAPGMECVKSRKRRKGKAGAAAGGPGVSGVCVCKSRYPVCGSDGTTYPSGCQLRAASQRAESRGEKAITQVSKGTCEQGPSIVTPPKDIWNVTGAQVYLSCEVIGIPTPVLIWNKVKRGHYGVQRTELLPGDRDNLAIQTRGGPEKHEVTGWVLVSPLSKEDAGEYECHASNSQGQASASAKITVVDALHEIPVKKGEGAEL

56662 [10] = target: T7, 56662 (UniProt P17936-1 28-291); test: as above; conditions: both partners purified
T7 construct: the secretory signal peptide was derived from IGFBP-2; Fc portion of IgG1 added to the C terminus of IGFBP-3; called an Fc dimer; Probably the mature IGFBP-3 after removal of the IGFBP-2 signal peptide; also called IGFBP-3-Fc; BP3-Fc (unmodified IGFBP-3 Fc construct); source: 293 T cells, transfected; conditioned medium purified by proteinA Sepharose; not shown: Fc (IgG1), C-terminal, kept

Chimera A [11] = target: T8, Chimera A; test: as above; conditions: both partners purified
T8 construct: signal peptide derived from IGFBP-2; VEGF receptor 1 domain 2, first part of VEGF-trap; VEGF receptor 2 domain 3, second part of VEGF-trap; VEGF-trap inserted between the IGFBP-3 and the Fc domain; also called chA; BP3-VEGF-trap-Fc; source: 293 T cells, transfected; conditioned medium purified by proteinA Sepharose; not shown: Fc (IgG1), C-terminal, kept

56662 [12] = target: T7, 56662; test: SPR; growth factor immobilised on a CM4 chip instead of the binding protein (asterisk in Table 1), binding protein or Fc fusion as analyte; HBS-P, 25 °C; regeneration with 4 M MgCl2 then 5 M guanidinium chloride; 1:1 binding analysis; conditions: both partners purified
Chimera A [13] = target: T8, Chimera A; test: as above; conditions: both partners purified
Target sequence in this assay (Q02297 20-241, stated change not applied): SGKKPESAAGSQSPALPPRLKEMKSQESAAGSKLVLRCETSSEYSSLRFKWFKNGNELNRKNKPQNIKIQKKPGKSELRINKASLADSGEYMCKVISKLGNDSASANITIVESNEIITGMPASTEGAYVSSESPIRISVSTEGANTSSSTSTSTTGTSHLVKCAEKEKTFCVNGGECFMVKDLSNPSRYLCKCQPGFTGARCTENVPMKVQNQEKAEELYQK

IGFBP-2 = target: T9, IGFBP-2 (UniProt P18065 36-325); test: SPR; IGF binding protein or Fc fusion amine-coupled to a CM4 chip, growth factor as analyte; Biacore T100 or T200, HBS-P, BSA (0.2 mg/ml) or NaCl (0.65 M final) to reduce non-specific binding, 25 °C; 1:1 binding analysis; conditions: both partners purified
T9 construct: source: bought (commercially available, carrier-free)
T9 sequence (looked up): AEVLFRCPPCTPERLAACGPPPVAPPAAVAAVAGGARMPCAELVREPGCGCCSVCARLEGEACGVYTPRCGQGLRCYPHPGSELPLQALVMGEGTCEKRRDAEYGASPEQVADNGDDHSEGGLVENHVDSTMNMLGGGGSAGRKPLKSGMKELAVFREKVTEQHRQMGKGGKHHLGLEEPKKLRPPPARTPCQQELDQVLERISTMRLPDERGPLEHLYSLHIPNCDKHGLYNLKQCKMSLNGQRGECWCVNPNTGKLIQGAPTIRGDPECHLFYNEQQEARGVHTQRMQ

T2 sequence (P14210 32-728): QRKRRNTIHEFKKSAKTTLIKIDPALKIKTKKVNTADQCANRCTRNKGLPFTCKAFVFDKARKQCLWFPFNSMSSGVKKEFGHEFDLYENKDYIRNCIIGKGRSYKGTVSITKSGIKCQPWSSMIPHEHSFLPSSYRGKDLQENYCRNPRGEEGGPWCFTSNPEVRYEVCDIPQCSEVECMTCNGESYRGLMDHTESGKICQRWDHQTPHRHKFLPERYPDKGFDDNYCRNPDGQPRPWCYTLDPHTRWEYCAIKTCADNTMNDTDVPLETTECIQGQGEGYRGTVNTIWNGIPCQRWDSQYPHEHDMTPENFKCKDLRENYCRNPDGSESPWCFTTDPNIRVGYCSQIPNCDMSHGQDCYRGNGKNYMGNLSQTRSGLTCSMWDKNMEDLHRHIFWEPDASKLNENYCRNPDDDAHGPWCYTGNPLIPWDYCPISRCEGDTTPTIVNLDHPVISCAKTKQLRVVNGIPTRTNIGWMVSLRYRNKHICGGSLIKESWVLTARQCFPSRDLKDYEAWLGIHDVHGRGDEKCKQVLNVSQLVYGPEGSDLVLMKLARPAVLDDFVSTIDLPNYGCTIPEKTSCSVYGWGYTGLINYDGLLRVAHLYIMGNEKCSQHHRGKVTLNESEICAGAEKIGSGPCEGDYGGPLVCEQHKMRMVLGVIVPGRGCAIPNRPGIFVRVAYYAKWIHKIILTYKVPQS
T1 sequence (Q02297 20-241): as the sequence (Q02297 20-241, stated change not applied) above

B1: D3 (Fc fusion)
chain: GASSAGLGPVVRCEPCDARALAQCAPPPAVCAELVREPGCGCCLTCALSEGQPCGIYTERCGSGLRCQPSPDEARPLQALLDGRGLCVNASAVSRPAPPAPGNASESEEDRSAGSVESPSVSSTHRVSDPKFHPKGHAKVDYESQSTDTQNFSSESKRETEYGPCRREMEDTLNHLKFLNVLSPRGVHIPNCDKKGFYKKKQCRPSKGRKRGFCWCVDKYGQPLPGYTTKGKEDVHCYSMQSK
Q: With B1 as the binder, how does the “IC50 of inhibition of NRG-stimulated proliferation, Hep3B cells” value (neuregulin-1 [1]) read?
A: Its value is 43 nM.

Q: And the “IC50 of inhibition of NRG-stimulated proliferation, MCF-7 cells” value (neuregulin-1 [1])?
A: Its value is 112 nM.

Q: What about the “IC50 of inhibition of HGF-stimulated proliferation, HUVEC” value (hepatocyte growth factor [2]) of the same binder?
A: Its value is 56 nM.

Q: What about the “IC50 of inhibition of HGF-stimulated proliferation, Hep3B cells” value (hepatocyte growth factor [2]) of the same binder?
A: The value was 58 nM.

Q: What about the “IC50 of inhibition of PDGF BB-stimulated proliferation, 3T3 cells” value (PDGF BB [3]) of the same binder?
A: The value was 30 nM.

Q: And the “IC50 of inhibition of IGF1-stimulated proliferation, HUVEC” value [4]?
A: The value was 7.45 nM.

Q: What about the “IC50 of inhibition of IGF1-stimulated proliferation, Hep3B cells” value [4] of the same binder?
A: Its value is 21 nM.

Q: What about the “IC50 of inhibition of IGF1-stimulated proliferation, MCF-7 cells” value [4] of the same binder?
A: Its value is 29 nM.

Q: What about the “IC50 of inhibition of bFGF-stimulated proliferation, HUVEC” value (Basic FGF [5]) of the same binder?
A: The value was 39 nM.

Q: And the “IC50 of inhibition of bFGF-stimulated proliferation, Hep3B cells” value (Basic FGF [5])?
A: The value was 59 nM.

Q: And the “IC50 of inhibition of bFGF-stimulated proliferation, MCF-7 cells” value (Basic FGF [5])?
A: Its value is 26 nM.

Q: And the Kd (neuregulin-1 [6])?
A: Its Kd is 2.62 nM.

Q: And the Kd (hepatocyte growth factor [7])?
A: The Kd was 2.63 nM.

Q: What about the Kd (PDGF BB [8]) of the same binder?
A: Its Kd is 5.29 nM.

Q: And the Kd (Basic FGF [9])?
A: Its Kd is 3.29 nM.

B2: D3 (Fc fusion)
chain: GASSAGLGPVVRCEPCDARALAQCAPPPAVCAELVREPGCGCCLTCALSEGQPCGIYTERCGSGLRCQPSPDEARPLQALLDGRGLCVNASAVSRPAPPAPGNASESEEDRSAGSVESPSVSSTHRVSDPKFHPKGHAKVDYESQSTDTQNFSSESKRETEYGPCRREMEDTLNHLKFLNVLSPRGVHIPNCDKKGFYKKKQCRPSKGRKRGFCWCVDKYGQPLPGYTTKGKEDVHCYSMQSK
modifications: Secreted Fc-fusion dimer; Fc omitted. Deletions 121-126, 166-174 and 180-185 are in 56662 precursor numbering (UniProt = construct + 2). The IGFBP-2 signal peptide is removed. / Disulfide-linked …
Q: With B2 as the binder, how does the Kd (VEGF-B) read?
A: The Kd was 19.8 nM.

B3: neuregulin-1 (ligand)
chain: SERKEGRGKGKGKKKERGSGKKPESAAGSQSPALPPRLKEMKSQESAAGSKLVLRCETSSEYSSLRFKWFKNGNELNRKNKPQNIKIQKKPGKSELRINKASLADSGEYMCKVISKLGNDSASANITIVESNEIITGMPASTEGAYVSSESPIRISVSTEGANTSSSTSTSTTGTSHLVKCAEKEKTFCVNGGECFMVKDLSNPSRYLCKCPNEFTGDRCQNYVMASFYKHLGIEFMEAEELYQK
modifications: R&D 377-HB, neuregulin extracellular domain, taken as NRG1-beta1 Ser2-Lys246; the paper prints only the catalogue number and 'extracellular domain'.
Q: B3 was tested. Which Kd (IGFBP-3) did it give?
A: The Kd was 2.09 nM.

Q: And the Kd (IGFBP-7)?
A: Its Kd is 1600 nM.

Q: What about the Kd 56662 [10] of the same binder?
A: Its Kd is 4.46 nM.

Q: What about the Kd (Chimera A [11]) of the same binder?
A: Its Kd is 3.21 nM.

Q: What about the Kd 56662 [12] of the same binder?
A: The Kd was 4.66 nM.

Q: And the Kd (Chimera A [13])?
A: Its Kd is 1.71 nM.

B4: VEGF-B (ligand)
chain: PVSQPDAPGHQRKVVSWIDVYTRATCQPREVVVPLTVELMGTVAKQLVPSCVTVQRCGGCCPDDGLECVPTGQHQVRMQILMIRYPSSQLGEMSLEEHSQCECRPKKKDSAVKPDSPRPLCPRCTQHHQRPDPRTCRCRCRRRSFLRCQGRGLELNPDTCRCRKLRR
modifications: Disulfide-linked homodimer. R&D 751-VE taken as the VEGF-B167 isoform; isoform and limits are not printed.
Q: Which Kd (IGFBP-2) does the source give for B4 here?
A: Its Kd is 2.82 nM.

Q: What about the Kd (IGFBP-3) of the same binder?
A: Its Kd is 16.1 nM.

Q: What about the Kd (IGFBP-7) of the same binder?
A: The Kd was 9.88 nM.

Q: And the Kd 56662 [10]?
A: The Kd was 14.3 nM.

Q: What about the Kd (Chimera A [11]) of the same binder?
A: Its Kd is 0.49 nM.
